These results are taken from the supplement of paper PMC5998384.

Data set [1] relates to HeLa Kyoto. Description: solubility in G1/S (NP-40 vs SDS abundance) (log2 ratio); higher = more soluble. The note with it: cell cycle stage: G1/S.
Data set [2] has as its system HeLa Kyoto. As to the kind of experiment: melting temperature (median over replicates), in situ; higher = more thermally stable.
Data set [3] relates to HeLa Kyoto. Description: thermal stability score vs G1/S (z-score of summed log2 fold changes over temperatures); higher = more thermally stable than in G1/S.
In data set [4] the test system is HeLa Kyoto. As to the kind of experiment: solubility change mitosis vs G1/S (difference of NP-40 vs SDS log2 ratios) (log2 ratio difference); higher = more soluble in mitosis.
[5] abbreviates: cell cycle stage: early G1 (4.5 h after nocodazole release).
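Wherever melting temperature (median over replicates), in situ is given: HeLa Kyoto cells synchronized by double thymidine or nocodazole block, proteins quantified by TMT10plex mass spectrometry, three independent biological replicates.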
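Wherever solubility change mitosis vs G1/S (difference of NP-40 vs SDS log2 ratios) is given: synchronized HeLa Kyoto cells (double thymidine block for G1/S, nocodazole release for mitosis), protein amounts in NP-40 versus SDS lysates quantified by mass spectrometry, three biological replicates.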
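Wherever solubility in G1/S (NP-40 vs SDS abundance) is given: HeLa Kyoto cells arrested at G1/S by double thymidine block, proteins quantified by TMT10plex mass spectrometry in mild NP-40 versus SDS extracts, three biological replicates.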
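Wherever thermal stability score vs G1/S (z-score of summed log2 fold changes over temperatures) is given: synchronized HeLa Kyoto cells, proteins quantified by TMT10plex mass spectrometry, three biological replicates, mitosis taken 0.5 h after nocodazole release, G1/S directly after double thymidine block.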

In the case of RAB14, the “solubility in G1/S (log2)” value in data set [1] was 0.0669. The melting temperature in data set [2] (cell cycle stage: G1/S) was 60.6 °C; in data set [2] (cell cycle stage: mitosis), 58.8 °C. Moreover, the thermal stability score in data set [3] (setting [5]) was -1.89; in data set [3] (cell cycle stage: mitosis), -3.07. Further, in data set [4], the “solubility change mitosis (log2)” value was -0.0891.

On to “MQAHELFRYFRMPELVDFRQYVRTLPTNTLMGFGAFAALTTFWYATRPKPLKPPCDLSMQSVEVAGSGGARRSALLDSDEPLVYFYDDVTTLYEGFQRGIQVSNNGPCLGSRKPDQPYEWLSYKQVAELSECIGSALIQKGFKTAPDQFIGIFAQNRPEWVIIEQGCFAYSMVIVPLYDTLGNEAITYIVNKAELSLVFVDKPEKAKLLLEGVENKLIPGLKIIVVMDAYGSELVERGQRCGVEVTSMKAMEDLGRANRRKPKPPAPEDLAVICFTSGTTGNPKGAMVTHRNIVSDCSAFVKATENTVNPCPDDTLISFLPLAHMFERVVECVMLCHGAKIGFFQGDIRLLMDDLKVLQPTVFPVVPRLLNRMFDRIFGQANTTLKRWLLDFASKRKEAELRSGIIRNNSLWDRLIFHKVQSSLGGRVRLMVTGAAPVSATVLTFLRAALGCQFYEGYGQTECTAGCCLTMPGDWTAGHVGAPMPCNLIKLVDVEEMNYMAAEGEGEVCVKGPNVFQGYLKDPAKTAEALDKDGWLHTGDIGKWLPNGTLKIIDRKKHIFKLAQGEYIAPEKIENIYMRSEPVAQVFVHGESLQAFLIAIVVPDVETLCSWAQKRGFEGSFEELCRNKDVKKAILEDMVRLGKDSGLKPFEQVKGITLHPELFSIDNGLLTPTMKAKRPELRNYFRSQIDDLYSTIKV [ACSL1]”, for which, in data set [1], the “solubility in G1/S (log2)” value was determined as 0.0525. Moreover, the melting temperature in data set [2] (cell cycle stage: G1/S) was determined as 51.6 °C; in data set [2] (cell cycle stage: mitosis), 52.1 °C. The values for the thermal stability score in data set [3] (setting [5]) and in data set [3] (cell cycle stage: mitosis) were -0.625 and -1.37, respectively. Besides, the “solubility change mitosis (log2)” value in data set [4] is -0.213.

“MAGVGAGPLRAMGRQALLLLALCATGAQGLYFHIGETEKRCFIEEIPDETMVIGNYRTQMWDKQKEVFLPSTPGLGMHVEVKDPDGKVVLSRQYGSEGRFTFTSHTPGDHQICLHSNSTRMALFAGGKLRVHLDIQVGEHANNYPEIAAKDKLTELQLRARQLLDQVEQIQKEQDYQRYREERFRLTSESTNQRVLWWSIAQTVILILTGIWQMRHLKSFFEAKKLV [TMED4]”: in data set [1], the “solubility in G1/S (log2)” value was 0.179. Further, the results for the melting temperature in data set [2] (cell cycle stage: G1/S) and in data set [2] (cell cycle stage: mitosis) were 56 °C and 56.4 °C, respectively. Also, the thermal stability score turned out to be 2.03 in data set [3] (setting [5]) and 0.764 in data set [3] (cell cycle stage: mitosis). The “solubility change mitosis (log2)” value in data set [4] was -0.0477.

For the substance “MLWSGCRRFGARLGCLPGGLRVLVQTGHRSLTSCIDPSMGLNEEQKEFQKVAFDFAAREMAPNMAEWDQKELFPVDVMRKAAQLGFGGVYIQTDVGGSGLSRLDTSVIFEALATGCTSTTAYISIHNMCAWMIDSFGNEEQRHKFCPPLCTMEKFASYCLTEPGSGSDAASLLTSAKKQGDHYILNGSKAFISGAGESDIYVVMCRTGGPGPKGISCIVVEKGTPGLSFGKKEKKVGWNSQPTRAVIFEDCAVPVANRIGSEGQGFLIAVRGLNGGRINIASCSLGAAHASVILTRDHLNVRKQFGEPLASNQYLQFTLADMATRLVAARLMVRNAAVALQEERKDAVALCSMAKLFATDECFAICNQALQMHGGYGYLKDYAVQQYVRDSRVHQILEGSNEVMRILISRSLLQE [ACAD8]”, in data set [1], the “solubility in G1/S (log2)” value is -0.0509. Further, the melting temperature in data set [2] (cell cycle stage: G1/S) turned out to be 54.9 °C; in data set [2] (cell cycle stage: mitosis), 55.2 °C. Besides, the thermal stability score in data set [3] (setting [5]) was -0.89; in data set [3] (cell cycle stage: mitosis) it was -3.82. The “solubility change mitosis (log2)” value in data set [4] was -0.0672.

As for MYH9, in data set [1], the “solubility in G1/S (log2)” value was 0.1. The melting temperature is 53.4 °C in data set [2] (cell cycle stage: G1/S) and 52.1 °C in data set [2] (cell cycle stage: mitosis). Further, the results for the thermal stability score in data set [3] (setting [5]) and in data set [3] (cell cycle stage: mitosis) were -1.58 and 0.618, respectively. Besides, in data set [4], the “solubility change mitosis (log2)” value is -0.117.
